T1: Scrambled Y42,52,63(SO3) PSGL-1(42-62) biotin peptide (sulfotyrosine at peptide positions 1, 11 and 22; C-terminal Lys-biotin)
T1 peptide: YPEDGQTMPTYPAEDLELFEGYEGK

T2: Biotin PSGL-1(42-62) peptide, unmodified (human, C-terminal Lys-biotin)
T2 construct: Residues 42-62 followed by GGGK-biotin; also called WT; wild-type
T2 peptide: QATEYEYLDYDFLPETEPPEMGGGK

T3: Biotin Y46,48,51(SO3) PSGL-1(42-62) peptide (human, sulfotyrosine at Y46, Y48 and Y51; C-terminal Lys-biotin)
T3 construct: also called fully sulfated N-terminal PSGL-1 peptide
T3 peptide: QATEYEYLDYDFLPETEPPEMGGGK


Tests used:
[1] = molecular target: T1, Scrambled Y42,52,63(SO3) PSGL-1(42-62) …; assay: ELISA, immobilized biotin peptide
Procedure, shortened: (§1)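 In this ELISA, half-well high binding plates (Corning Cat. #3690) received 3 ug/mL/25 ul per well of biotin-tagged PSGL-1 peptides covering residues 42 to 62, diluted in PBS, pH 7.4, and coated overnight at 4° C. Duplicate readings for each antibody were averaged and the average assay background was subtracted. PSGL-1 protein or peptide was the positive control.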

[2] = molecular target: T2, Biotin PSGL-1(42-62) peptide, unmodified; assay: ELISA, immobilized biotin peptide
Procedure, shortened: as §1

[3] = molecular target: T3, Biotin Y46,48,51(SO3) PSGL-1(42-62) …; assay: ELISA, immobilized biotin peptide
Procedure, shortened: as §1

[4] = molecular target: T4, Cynomolgus PSGL-1(ECD)-hFc1 (cynomolgus macaque); assay: ELISA, 20 nM mAb on plate cyno PSGL-1(ECD)-Fc
T4 construct: also called Cyno PSGL1-Fc; Cyno PSGL-1(ECD)-Fc
Experimental: Antibody binding to plate-immobilized cyno PSGL-1(ECD) was determined either at one concentration (20 nM) or by generating full antibody binding curves (0.003-200 nM). A typical ELISA was performed by overnight coating at 4° C. with 3 ug/mL/25 ul per well of recombinant cyno PSGL-1(ECD) protein in PBS, pH 7.4, in high binding half-well plates (Corning Cat. #3690). […] Anti-PSGL-1 IgG in assay buffer (blocking buffer containing 0.05% tween 20) was added into test and control wells (20 nM/25 ul/well) and the plate incubated for 45 min at 37° C. […] The plate was incubated for 45 min at 37° C., and mAb bound to plate-immobilized target determined at A450 nm using HRP substrate (3,3′,5,5′-tetramethylbenzidine (TMB)). For each antibody, duplicate values were averaged and assay background subtracted.

Binder | A450nm, 20 nM mAb [1] [A450nm] | binding result [1] | EC50 [2] [nM] | A450nm, 20 nM mAb [3] [A450nm] | EC50 [3] [nM] | A450nm [4] [A450 nm] | A450nm, 20 nM mAb [2] [A450nm]
05H03 (antibody, IgG4, V domains shown) VH: QVQLQQSGGGLVQPGGSLTLSCVGSGFDFRSYAMSWVRQAPGKGLEWVSGINNSGSKTYYADFVKGRFSVSRDNSKNIVWLRMRSLRAEDTAVYYCARRTFGPPHAWGQGTMVTVSS VL: DIVMTQSPLSLSVTPGEPASISCRSSQSLLHSNGYKYLDWYLQKPGQSPQLLIYMGSNRASGVPDRFSGSGSGTDFTLKISRVEAEDVGVYYCMQGLQSPLTFGGGTKVEIE | 0.04 | no binding (tested: 20 nM) | ~0.02 | 2.77 | ~0.02 | 2.01 | 
03F03 (antibody, V domains shown) VH: QVQLQESGPGLVKPSETLSLTCTVSGGSISSSSYYWGWIRQPPGKGLEWIGSIYYSGSTYYNPSLKSRVTISVDTSKNQFSLKLSSVTAADTAVYYCARSRPRPWAFDIWGQGTMVTVSS VL: not shown | 0.03 | no binding (tested: 20 nM) | > 500 | 2.54 | 0.08 | 0.58 | 
05E08 (antibody, IgG4, V domains shown) VH: EVQLVQSGGGVVQPGRSLRLSCAASGFTFSTYAMHWVRQAPGKGLEWVAVISYDGSNKYYADSVKGRFTISRDNSRNTLFLQMNSLRDEDTAVYYCAKRGTMIRGERSLDFWGQGTLVTVSS VL: AIQMTQSPSFLSASVGDRVTITCRASQGINSWLAWYQQKPGTAPNLLIHAASTLQSGVPSRFSGSRSGTEFTLTISSLQPEDFATYYCQQLQSYPLTFGQGTRLEIK | 0.01 | no binding (tested: 20 nM) | > 500 | 2.57 | ~0.01 | 0.77 | 
06A07 (antibody, IgG4, V domains shown) VH: QVQLVQSGPELKNPGASVKVSCKASGYSFTNFYINWVRQAPGRGLEWVGWISPNNGNTHYARNLQGRVTMTTDTSTNTAYLELKNLRSDDTAIYFCGRSVSMGYWGQGTLVTVSS VL: LPVLTQPPSVSKGLRQTATLTCTGNSKNVGNQGAAWLQQHQGQPPKLLSYRNNNRPSGISERFSASRSGNTASLTITGLQPEDEADYYCSAWDSSLSAQVFGGGTKLTVL | 0.02 | no binding (tested: 20 nM) | 7.2 | 2.7 | ~0.02 | 1.27 | 
07E07 (antibody, IgG4, V domains shown) VH: QVQLQQSGAEVKKPGASVKVSCKASGYTFTSYYMHWVRQAPGQGLEWMGIINTSSGSTKYAQRFQDRVTVTRDTSTTTVYMELNSLRSEDTAVYYCARGGRAYSGSFDNWGQGTLVTVSS VL: DVVMTQSPLSLPVTLGQPASISCRSSQSLVHRDGNTYFNWFQQRPGQSPRRLIYKVSNRDSGVPDRFSGSGSGTDFTLKISRVEAEDVGVYYCMQATHWPRTFGQGTKVEIK | 0.01 | no binding (tested: 20 nM) | > 500 | 2.77 | 0.15 | 0.38 | 
09A02 (antibody, IgG4, V domains shown) VH: EVQLVQSGGGLVKPGGSLRLSCAASGFTFRTAWMSWVRQAPGKGLEWVGRMKSKNDGGTTDYAAPVKGRFTISRDDSRDTVYLQMNSLKTEDTGVYYCATYAAGATVPWGQGTLVTVSS VL: DIVMTQTPLSAPVTLGQPASISCRSSRSLLQRNGYNYVDWYQQKAGNPPRLLIYLGSRRASGVPDRFSGSGSDKDFTLKISRVEADDVGFYFCKQSLQAPPTFGGGTKIEIT | 0.03 | no binding (tested: 20 nM) | ~500 | 2.82 | 0.51 | 0.73 | 

The remaining lines, values ahead:

A450nm, 20 nM mAb [1] [A450nm] | binding result [1] | EC50 [2] [nM] | A450nm, 20 nM mAb [3] [A450nm] | EC50 [3] [nM] | A450nm [4] [A450 nm] | A450nm, 20 nM mAb [2] [A450nm] | Binder
0.05 | no binding (tested: 20 nM) | ~0.05 | 2.63 | 0.07 | 1.93 |  | 09D04 (antibody, IgG4, V domains shown) VH: QVQLQQSGGGLVQPGGSLTLSCVGSGFDFRSYAMSWVRQAPGKGLEWVSGINNSGSKTYYADFVKGRFSVSRDNSKNIVWLRMRSLRAEDTAVYYCARRTFGPPHAWGQGTMVTVSS VL: DVVMTQSPLSLPVTPGEPASISCRSSQSLLHSNGYTYLEWYLHKPGQSPQLLIYLGSNRASGVPDRFSGSGSGTDFTLKISRVEAEDVGVYYCMHSLHIPFTFGPGTKVDIK
0.21 |  |  | 2.77 |  | 1.17 | 0.2 | 09C10 (antibody, V domains shown) VH: EVKLLESGGGLIQPGGSLRLSCAASGFTVSNNYVTWVRQAPGKGLELVSSIYSGGGTYYADSVKGRFTISRDNSKNTVYLQMNSLRADDTAVYYCARNVPVTNFGYWGQGTLVTVSS VL: DIVMTQSPLSLPVTLGQPASISCRSSQSLVYRDGNTYLNWFQQRPGQSPRRLIYKVSNRDSGVPDRFSGSGSGTDFTLKISRVEAEDVGVYYCMQLTHWPPGFAQGTKLEIK
 | no binding (tested: 20 nM) | 3 | 2.8 | ~0.01 | 0.64 |  | 05C02 (antibody, V domains shown) VH: EVKLLESGGGVVQPGRSLRLSCAASGFTFKNFAMHWVRQAPGKGLEWVAVISYDGSSEDYADSVKGRFTLSRDNAKNSLYLQMNNLRAEDTAVYYCARGRRPDYWGQGTLVTVSS VL: not shown
 | no binding (tested: 20 nM) | > 500 | 2.43 | 0.1 | 1.18 |  | 09A08 (antibody, IgG4, V domains shown) VH: QVQLVQSGAAVKKPGESLKISCKGSGYTFSNYWIGWVRQMPGKGLEWMGIIYPGDSDTRYSPSFQGQVTISADKSISTAYLQWSSLKASDTAMYYCARHIVGPPKSAFDIWGQGTMVTVSS VL: DIVMTQTPLSLPVTLGQPASISCSSSQGLQKRDGNTYLNWFQQRPGQSPRRLIYKVSNRDSGVPDRFSGSGSGTDFTLKISRVEAEDVGVYYCMQGTHWPWTFGQGTRVEIK
 | no binding (tested: 20 nM) |  | 2.64 |  | 0.55 | 0.07 | 06C04 (antibody, IgG4, V domains shown) VH: EVQLVESGGGLVQPGGSLRLSCAASGFTFSDHYMDWVRQAPGKGLEWVGRSRNKVKSYTTAYAASVEGRITISRDDSKNSLYLEMNSLKTEDTAVYYCVRVRWGGAFDIWGQGTMVTVSS VL: QPVLTQPPSASGSPGQSVTISCTGTSSDVGGYNYVSWYQQHPGKAPKLMIYEVSKRPSGVPDRFSGSKSGNTASLTVSGLQAEDEADYYCSSYAGSNNLRVFGGGTKLTVL
 | no binding (tested: 20 nM) | 0.51 | 2.52 | 0.65 | 1.4 |  | 11D10 (antibody, IgG4, V domains shown) VH: EVKLLESGGGLVQPGGSLRLSCAVSGFTFSTSAMIWVRQAPGKGLEWVSFISGSTSNTYYADSVKGRFTISRDNSKNTLYLQMNGLTAEDTAVYYCARGTAAATWGQGALVTVSS VL: not shown
 | no binding (tested: 20 nM) | ~500 | 2.52 | ~0.025 | 0.7 |  | 05A11 (antibody, IgG4, V domains shown) VH: EVKLLESGGGVVQPGRSLRLSCAASGFSFSAYGMHWVRQAPGKGLEWVSSISGSGDGTYYADSVKGRFTISRDNSKNTLYLQMNSLRAEDAAVYYCAKSVKGRGYFFDYWGQGTLVTVSS VL: DIVLTQSPSSLSASVGDRVTITCRASQSISSYLNWYQQKPGKAPKLLIYAASSLQSGVPSRFSGSGSGTDFTLSISNLQPEDFATYYCQQAYKFPRSFGGGTKVEFK

— patent publication US20220396632A1 (VERSEAU THERAPEUTICS, published 2022)
